{"source": "patent US20250262210A1", "about": "(TRUSTEES OF COLUMBIA UNIVERSITY IN THE CITY OF NEW YORK, published 2025)", "molecular_target": "T1, TRAPPC11 (human, UniProt Q7Z392 1-1133, limits assumed)", "T1 sequence (looked up)": "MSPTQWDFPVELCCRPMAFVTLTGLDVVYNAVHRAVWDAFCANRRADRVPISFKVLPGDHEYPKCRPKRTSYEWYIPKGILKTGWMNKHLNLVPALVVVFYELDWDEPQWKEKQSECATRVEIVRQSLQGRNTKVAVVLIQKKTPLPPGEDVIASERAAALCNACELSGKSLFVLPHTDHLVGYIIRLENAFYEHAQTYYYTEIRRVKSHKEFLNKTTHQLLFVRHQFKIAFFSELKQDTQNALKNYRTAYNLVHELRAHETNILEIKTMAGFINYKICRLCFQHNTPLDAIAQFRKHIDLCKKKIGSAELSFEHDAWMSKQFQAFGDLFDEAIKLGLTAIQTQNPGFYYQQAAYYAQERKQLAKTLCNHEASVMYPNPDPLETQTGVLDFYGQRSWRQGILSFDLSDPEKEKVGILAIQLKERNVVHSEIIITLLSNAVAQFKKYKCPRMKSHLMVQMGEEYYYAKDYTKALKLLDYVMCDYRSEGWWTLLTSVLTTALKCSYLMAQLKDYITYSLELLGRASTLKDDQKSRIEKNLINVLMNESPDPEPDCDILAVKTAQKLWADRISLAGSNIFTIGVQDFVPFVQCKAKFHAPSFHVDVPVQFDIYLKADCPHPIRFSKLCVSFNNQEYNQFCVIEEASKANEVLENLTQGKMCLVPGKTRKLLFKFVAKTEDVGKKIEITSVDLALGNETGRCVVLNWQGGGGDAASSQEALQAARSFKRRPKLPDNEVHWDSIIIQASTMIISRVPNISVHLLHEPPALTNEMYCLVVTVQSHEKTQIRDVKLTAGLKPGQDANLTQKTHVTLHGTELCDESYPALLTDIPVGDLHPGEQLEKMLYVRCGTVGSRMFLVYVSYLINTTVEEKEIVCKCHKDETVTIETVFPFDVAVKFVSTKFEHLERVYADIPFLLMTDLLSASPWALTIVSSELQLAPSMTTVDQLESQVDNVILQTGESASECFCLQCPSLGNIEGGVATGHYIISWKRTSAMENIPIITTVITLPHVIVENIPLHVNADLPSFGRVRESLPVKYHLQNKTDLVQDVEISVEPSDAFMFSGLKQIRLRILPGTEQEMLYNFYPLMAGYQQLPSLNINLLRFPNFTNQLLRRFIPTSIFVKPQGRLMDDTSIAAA", "experiment": "IP/MS, LZTR1 R810W-FLAG, U87", "procedure,_shortened": "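Read-out: spectral counts from LC-MS/MS (Orbitrap Fusion) after MaxQuant identification. Variable modifications were Met oxidation, protein N-terminal acetylation and N/Q deamidation.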"}
{"binder": "LZTR1 R810W-FLAG (other, human, UniProt Q8N653 1-840, looked up, Stably expressed in U87 cells by lentivirus; also called LZTR1-FLAG-R810W; LZTR1 RW; not shown: FLAG tag) MAGPGSTGGQIGAAALAGGARSKVAPSVDFDHSCSDSVEYLTLNFGPFETVHRWRRLPPCDEFVGARRSKHTVVAYKDAIYVFGGDNGKTMLNDLLRFDVKDCSWCRAFTTGTPPAPRYHHSAVVYGSSMFVFGGYTGDIYSNSNLKNKNDLFEYKFATGQWTEWKIEGRLPVARSAHGATVYSDKLWIFAGYDGNARLNDMWTIGLQDRELTCWEEVAQSGEIPPSCCNFPVAVCRDKMFVFSGQSGAKITNNLFQFEFKDKTWTRIPTEHLLRGSPPPPQRRYGHTMVAFDRHLYVFGGAADNTLPNELHCYDVDFQTWEVVQPSSDSEVGGAEVPERACASEEVPTLTYEERVGFKKSRDVFGLDFGTTSAKQPTQPASELPSGRLFHAAAVISDAMYIFGGTVDNNIRSGEMYRFQFSCYPKCTLHEDYGRLWESRQFCDVEFVLGEKEECVQGHVAIVTARSRWLRRKITQARERLAQKLEQEAAPVPREAPGVAAGGARPPLLHVAIREAEARPFEVLMQFLYTDKIKYPRKGHVEDVLLIMDVYKLALSFQLCRLEQLCRQYIEASVDLQNVLVVCESAARLQLSQLKEHCLNFVVKESHFNQVIMMKEFERLSSPLIVEIVRRKQQPPPRTPLDQPVDIGTSLIQDMKAYLEGAGAEFCDITLLLDGHPRPAHKAILAARSSYFEAMFRSFMPEDGQVNISIGEMVPSRQAFESMLRYIYYGEVNMPPEDSLYLFAAPYYYGFYNNRLQAYCKQNLEMNVTVQNVLQILEAADKTQALDMKRHCLHIIVHQFTKVSKLPTLWSLSQQLLLDIIDSLASHISDKQCAELGADI", "values": [{"measurement": "binding result", "value": "binds"}]}
